Data taken from patent US20130230533A1 (Regeneron, published 2013).

T1: biotinylated dimeric human CD48 protein expressed as a fusion with mouse IgG2a Fc (human, biotinylated)
T1 construct: also called bio-hCD48-mFc; Dimeric human CD48-mFc
T1 chain: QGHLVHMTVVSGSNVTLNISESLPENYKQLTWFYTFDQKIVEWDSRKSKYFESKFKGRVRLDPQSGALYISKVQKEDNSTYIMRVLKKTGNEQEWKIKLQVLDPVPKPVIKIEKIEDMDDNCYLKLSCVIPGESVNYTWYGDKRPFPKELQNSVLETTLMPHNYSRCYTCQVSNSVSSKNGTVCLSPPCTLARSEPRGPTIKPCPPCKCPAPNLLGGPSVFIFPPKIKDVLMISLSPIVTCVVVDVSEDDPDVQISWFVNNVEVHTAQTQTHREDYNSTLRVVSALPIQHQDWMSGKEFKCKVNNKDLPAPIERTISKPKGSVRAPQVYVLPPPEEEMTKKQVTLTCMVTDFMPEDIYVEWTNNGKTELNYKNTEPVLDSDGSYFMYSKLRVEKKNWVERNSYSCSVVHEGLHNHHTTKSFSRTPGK

T2: monomeric monkey CD48 expressed with a tag consisting of 2 myc and one 6-His epitopes (monkey)
T2 construct: also called mfCD48-mmH; Monomeric monkey CD48-mmH
T2 chain: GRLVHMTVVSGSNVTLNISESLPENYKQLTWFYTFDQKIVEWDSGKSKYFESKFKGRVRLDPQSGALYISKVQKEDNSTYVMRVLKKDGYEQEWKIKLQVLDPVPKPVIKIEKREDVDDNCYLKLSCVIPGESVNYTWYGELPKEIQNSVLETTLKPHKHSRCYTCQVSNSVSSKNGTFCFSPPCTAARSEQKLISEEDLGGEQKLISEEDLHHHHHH

T3: human CD48 (on primary human peripheral blood mononuclear cells) (human, UniProt P09326 27-220)
T3 sequence: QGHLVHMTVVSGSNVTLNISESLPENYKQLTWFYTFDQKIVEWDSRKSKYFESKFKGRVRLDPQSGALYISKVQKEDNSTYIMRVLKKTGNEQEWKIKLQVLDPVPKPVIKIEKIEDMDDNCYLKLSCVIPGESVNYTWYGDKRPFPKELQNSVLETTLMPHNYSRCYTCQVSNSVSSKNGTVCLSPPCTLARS


Key:
[1] = target: T1, biotinylated dimeric human CD48 protein …; assay: competition ELISA; blocks bio-hCD48-mFc binding to coated h2B4-mFc
Method: (§1) The ability of human anti-CD48 monoclonal antibodies to block human CD48 and monkey CD48 binding to the human cognate ligand, human 2B4, was measured using a competition sandwich ELISA (Table 8). Constant amounts of biotinylated dimeric human CD48 protein expressed as a fusion with mouse IgG2a Fc (“bio-hCD48-mFc” [SEQ ID NO: 387]) or monomeric monkey CD48 expressed with a tag consisting of 2 myc and one 6-His epitopes (“mfCD48-mmH” [SEQ ID NO: 386]) were separately titrated with varying amounts of antibodies. These antibody-protein complexes were incubated (1 hr, 25° C.) before being transferred to microtiter plates coated with a dimeric construct expressing the human 2B4 receptor fused to a either human IgG1 (h2B4-hFc [R&D Systems, Inc., Minneapolis, Minn., Cat. No. 1039-2B]) or mouse IgG2a Fc (h2B4-mFc [SEQ ID NO: 389). After a 1 hr at 25° C. the wells were washed and bound human CD48 was detected with streptavidin conjugated with horse-radish peroxidase (HRP), and monkey CD48 was detected with an HRP conjugated anti-myc polyclonal antibody. The ELISA was developed with a TMB solution to produce a colorimetric reaction and quenched with sulfuric acid before reading absorbance at 450 nm on a Victor X5 plate reader. Sigmoidal dose response curves were fit to the data using Prism™ software. […] (Tables 8 and 9, NB=no binding observed)

[2] = target: T2, monomeric monkey CD48 expressed with a …; assay: competition ELISA; blocks mfCD48-mmH binding to coated h2B4-mFc
Method: as §1

[3] = target: T3, human CD48 (on primary human peripheral …); assay: cell-based or functional assay
[4] = target: T3, human CD48 (on primary human peripheral …); assay: cell-based or functional assay; remark: listed apart in the source
[5] = target: T3, human CD48 (on primary human peripheral …); assay: cell-based or functional assay; remark: listed apart in the source

Row | Binder | IC50 [1] [nM] | IC50 [2] [nM] | Inhibition of IFN-gamma Release IC50; Donor 6 [3] [Molar] | Inhibition of IFN-gamma Release IC50; Donor 7 [3] [Molar] | % Blockade of IFNγ release, MLR; D1 [4] [%] | % Blockade of IFNγ release, MLR; D2 [4] [%] | % Blockade of IFNγ release, MLR; D3 [4] [%] | % Blockade of IFNγ release, MLR; D5 [4] [%] | % Blockade of IFNγ release, MLR; D6 [4] [%] | % Blockade of IFNγ release, MLR; D7 [4] [%] | Inhibition of IFN-gamma Release IC50; Donor 8 [5] [Molar] | Inhibition of IFN-gamma Release IC50; Donor 9 [5] [Molar] | Inhibition of IFN-gamma Release IC50; Donor 10 [5] [Molar] | Inhibition of IFN-gamma Release IC50; Donor 11 [5] [Molar] | % Blockade of IFNγ release, MLR; D4 [4] [%] | % Blockade of IFNγ release, MLR; D8 [4] [%] | % Blockade of IFNγ release, MLR; D9 [4] [%]
1 | H4H1779P (antibody, human IgG4, V domains shown, Human IgG4 Fc (H4H)) VH: QVQLVESGGGVVQPGRSLRLSCAASGFTFSNYGMHWVRQAPGKGLEWVAVIWYDESSKHYADSVKGRFTISRDNSQNTLYLQMTSLRAEDTAVYYCARDRWTYSHYFEYWGQGTLVTVSS VL: DIQMTQSPSSVSASVGDRVTITCRASQDISSWVAWYQQKPGKAPKLLIYAASSLQSGVPSRFSGSGSGTDFTLTISSLQPEDFATYYCQQANSFPRTFGQGTKVEIK | 0.016 | 0.0057 | 1.7e-12 | 1.5e-11 | – | – | – | – | – | – | – | – | – | – | – | – | –
2 | H4H1764N (antibody, human IgG4, V domains shown, Human IgG4 Fc (H4H) form of 1764N) VH: QVQLVESGGGVVQPGRSLRLSCAASGFTFSDYGMHWVRQAPGKGLEWVAVIWNDGSNKNYADSVKGRFSISSDSSKNTLYLHMNSLRAEDTAVYYCARSLYSTSPWYFDLWGRGTLVTVSS VL: not shown | 0.076 | 0.16 | – | – | 69 | 46 | 80 | 75 | 59 | 48 | 5.3e-12 | 3.1e-11 | 5.1e-12 | 2.3e-11 | – | – | –
3 | H4H1707N (antibody, V domains shown, Human IgG4 Fc (H4H) form of 1707N) VH: EGQLLESGGGLAQPGGSLRLSCAASGITFGRYAMSWVRQAPGKGLEWVSLISGSGGSTYHADSVKGRFTISRDNSKNTLYLQMNSLRAEDTAVYYCAIYNNYNWFDPWGQGTLVTVSS VL: EIVLTQSPGTLSLSPGERATLSCRASQSVSSNYLAWYQQKPGQAPRLLIYDASSRATDIPDRFSGSGSGTDFTLTISRLEPEDFAVYYCQQYGSSPRTFGQGTKVEIK | 0.022 | 0.045 | – | – | 66 | 87 | 78 | 62 | 77 | 62 | – | 5.1e-11 | – | – | 20 | 42 | 60
4 | H4H1771P (antibody, human IgG4, V domains shown, Human IgG4 Fc (H4H)) VH: QVQLVQSGTEVKKPGASVKVSCKVSGYTLIDLSIHWVRQAPGEGLEWMGGFDPEESETIYAQKFQGRVTMTEDTSTDTAYMELSSLRSEDTAVYYCVTEPIFGILIHESWGQGTLVTVSS VL: DIVMTQTPLSSPVTLGQPASISCRSSHSPVHSNGHTYLSWLQQRPGQPPRILIYKISRRFSGVPDRFSGSGAGTDFTLKISRVETEDVGIYYCMQASQFPWTFGQGTKVEIK | 0.0099 | 0.0022 | – | – | 78 | 79 | 88 | 47 | 50 | 36 | – | – | – | 1.5e-11 | – | – | 32
5 | H4H1772P (antibody, human IgG4, V domains shown, Human IgG4 Fc (H4H)) VH: EVQLVESGGGLVQPGGSLRLSCAASGFTFSSYWMSWVRQAPGKGLEWVANIMRDGSEKYYVDSVKGRFTISRDNAKNSLYLQMNSLRGEDTAVYYCARERGFYTNYGNWFDPWGQGTLVTVSS VL: DIVMTQSPLSLTVTPGESASISCRSSQSLLHSYGYNSLDWYLQKPGQSPQFLIYLVSNRASGVPDRFSGSGSGTDFTLKISRVEAEDVGVYYCMQVLQTPYTFGQGTKLEIK | 0.014 | 0.0044 | 2e-12 | 2.2e-11 | – | 65 | 62 | 62 | 63 | 58 | – | – | 1.4e-12 | 8.6e-11 | 39 | 25 | 59
